The results in this text go back to paper PMC12589613, “ATP-dependent one-dimensional movement maintains immune homeostasis by suppressing spontaneous MDA5 filament assembly” (Cell Research, 2025).

Numbering of substitutions follows the chain as printed. Names and notes keep the numbering of the source.

What all share (conditions): both partners purified
In assay [1] the target is T1, MDA5(R337G) (human, UniProt Q9BYX4 1-1025, R337G, Cy3 on a peptide (Cy3-CLPETGG) ligated by sortase; used unlabelled in some experiments).
T1 sequence (looked up): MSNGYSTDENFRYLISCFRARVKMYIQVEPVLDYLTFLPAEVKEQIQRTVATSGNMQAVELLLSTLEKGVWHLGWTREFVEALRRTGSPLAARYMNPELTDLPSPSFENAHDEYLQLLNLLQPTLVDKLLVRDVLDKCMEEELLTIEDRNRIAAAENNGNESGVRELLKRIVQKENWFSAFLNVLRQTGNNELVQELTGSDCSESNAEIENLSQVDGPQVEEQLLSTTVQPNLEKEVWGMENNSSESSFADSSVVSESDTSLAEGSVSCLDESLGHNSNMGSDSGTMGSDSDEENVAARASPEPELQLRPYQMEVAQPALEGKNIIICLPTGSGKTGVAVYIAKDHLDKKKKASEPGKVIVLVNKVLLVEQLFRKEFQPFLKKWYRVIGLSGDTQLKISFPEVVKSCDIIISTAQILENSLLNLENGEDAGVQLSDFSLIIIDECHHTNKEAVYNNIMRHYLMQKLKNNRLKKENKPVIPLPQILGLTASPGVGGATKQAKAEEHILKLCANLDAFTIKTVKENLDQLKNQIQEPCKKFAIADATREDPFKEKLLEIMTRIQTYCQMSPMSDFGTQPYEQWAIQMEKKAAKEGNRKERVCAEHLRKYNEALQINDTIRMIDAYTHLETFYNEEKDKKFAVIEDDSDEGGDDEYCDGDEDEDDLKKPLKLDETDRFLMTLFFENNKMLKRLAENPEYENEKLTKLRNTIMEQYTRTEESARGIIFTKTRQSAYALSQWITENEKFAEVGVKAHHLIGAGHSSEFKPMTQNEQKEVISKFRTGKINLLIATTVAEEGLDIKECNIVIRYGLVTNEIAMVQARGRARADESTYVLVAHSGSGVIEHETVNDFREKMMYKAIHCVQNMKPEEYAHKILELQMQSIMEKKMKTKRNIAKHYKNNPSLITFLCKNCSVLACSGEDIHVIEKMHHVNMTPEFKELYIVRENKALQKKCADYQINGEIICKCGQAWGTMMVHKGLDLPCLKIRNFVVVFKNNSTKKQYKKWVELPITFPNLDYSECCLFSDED
As to the kind of experiment: single-molecule TIRF imaging (smTIRF) on dsRNA; MAVS-CARD recruitment without LGP2: Cy3-MDA5, Cy3-MDA5(R337G) or Cy3-MDA5(M854K) (100 nM) and AF647-MAVS-CARD (100 nM) on 11.6-kb dsRNA; Imaging Buffer with 2 mM ATP, 23 °C.

The target of assay [2] is T2, MDA5(M854K) (human, UniProt Q9BYX4 1-1025, M854K, Cy3 on a peptide (Cy3-CLPETGG) ligated by sortase; used unlabelled in some experiments).
T2 sequence (looked up): T1 sequence (looked up) with G337R, M854K
Described as above.

For assay [3], the target named is T1, MDA5(R337G). As to the kind of experiment: single-molecule TIRF imaging (smTIRF) on dsRNA; 60 nM Cy3-LGP2 with or without 60 nM unlabelled MDA5, MDA5(R337G) or MDA5(M854K) on stretched, surface-anchored 11.6-kb dsRNA; Imaging Buffer (20 mM Tris-HCl pH 7.5, 100 mM NaCl, 1.5 mM MgCl2, 2 mM ATP unless stated otherwise), 23 °C.
Assay [4] has as its target T2, MDA5(M854K). The assay is described as above.

B1: MAVS-CARD(D23K/E26K/E80K) (domain or fragment, UniProt Q7Z434 1-97, looked up)
chain: MPFAEDKTYKYICRNFSNFCNVKVVKILPYLPCLTARDQDRLRATCTLSGNRDTLWHLFNTLQRRPGWVEYFIAALRGCKLVDLADEVASVYQSYQP
modifications: Alexa Fluor 647 (SNAP-Surface Alexa Fluor 647 substrate) on the SNAP-tag
notes: pET47b plasmid from the Sun Hur lab; also called AF647-MAVS-CARD; not shown: SNAP-tag, C-terminal, kept
Regarding B1, the binding result in the assay with MDA5(R337G) [1] and with MDA5(M854K) [2] was “binds” throughout.

B2: human LGP2 (natural protein, UniProt Q96C10 1-678, looked up)
chain: MELRSYQWEVIMPALEGKNIIIWLPTGAGKTRAAAYVAKRHLETVDGAKVVVLVNRVHLVTQHGEEFRRMLDGRWTVTTLSGDMGPRAGFGHLARCHDLLICTAELLQMALTSPEEEEHVELTVFSLIVVDECHHTHKDTVYNVIMSQYLELKLQRAQPLPQVLGLTASPGTGGASKLDGAINHVLQLCANLDTWCIMSPQNCCPQLQEHSQQPCKQYNLCHRRSQDPFGDLLKKLMDQIHDHLEMPELSRKFGTQMYEQQVVKLSEAAALAGLQEQRVYALHLRRYNDALLIHDTVRAVDALAALQDFYHREHVTKTQILCAERRLLALFDDRKNELAHLATHGPENPKLEMLEKILQRQFSSSNSPRGIIFTRTRQSAHSLLLWLQQQQGLQTVDIRAQLLIGAGNSSQSTHMTQRDQQEVIQKFQDGTLNLLVATSVAEEGLDIPHCNVVVRYGLLTNEISMVQARGRARADQSVYAFVATEGSRELKRELINEALETLMEQAVAAVQKMDQAEYQAKIRDLQQAALTKRAAQAAQRENQRQQFPVEHVQLLCINCMVAVGHGSDLRKVEGTHHVNVNPNFSNYYNVSRDPVVINKVFKDWKPGGVISCRNCGEVWGLQMIYKSVKLPVLKVRSMLLETPQGRIQAKKWSRVPFSVPDFDFLQHCAENLSDLSLD
modifications: Cy3 or Cy5 on a peptide (GGGC-Cy3/Cy5) ligated by sortase; used unlabelled in some experiments
As for B2, the binding result with MDA5(R337G) [3] and with MDA5(M854K) [4] was “binds” in each case.
